Assay results from patent US20230132604A1 (KEYMED BIOSCIENCES, published 2023).

T1: human CD38 expressed on tumor cells (Daudi, NALM-6, Ramos.2G6.4C10, TALL-1) (human, UniProt P28907 1-300)
T1 construct: whole, on cells; Endogenous CD38 on human tumor cell lines; also called CD38 molecules expressed on Daudi; CD38 on Daudi cells
T1 sequence (looked up): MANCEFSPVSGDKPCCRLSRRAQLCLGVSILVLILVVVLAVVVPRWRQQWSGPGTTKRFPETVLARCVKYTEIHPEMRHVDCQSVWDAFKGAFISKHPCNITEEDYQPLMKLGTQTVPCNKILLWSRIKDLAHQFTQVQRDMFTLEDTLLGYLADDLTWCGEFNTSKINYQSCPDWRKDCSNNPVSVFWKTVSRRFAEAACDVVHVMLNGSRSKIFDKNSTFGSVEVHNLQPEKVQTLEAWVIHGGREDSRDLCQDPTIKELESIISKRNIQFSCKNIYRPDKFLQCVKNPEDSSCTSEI

T2: recombinant human CD38 extracellular region protein (Val 43-Ile 300) with N-terminal 6×his tag (human, UniProt P28907 43-300)
T2 construct: range 43-300; Expressed in HEK293.6E cells and purified on a nickel chelate column; also called human CD38 recombinant protein; human CD38 protein
T2 sequence: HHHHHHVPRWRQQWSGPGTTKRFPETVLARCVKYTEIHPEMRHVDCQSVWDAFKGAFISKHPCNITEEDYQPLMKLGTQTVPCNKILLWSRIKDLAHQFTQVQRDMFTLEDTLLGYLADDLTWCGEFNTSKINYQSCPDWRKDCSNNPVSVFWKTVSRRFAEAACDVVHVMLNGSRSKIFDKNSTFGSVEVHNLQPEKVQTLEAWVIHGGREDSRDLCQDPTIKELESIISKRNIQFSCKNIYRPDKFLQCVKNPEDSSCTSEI


Tests used:
[1] = target: T1, human CD38 expressed on tumor cells …; test: flow cytometry (FACS) on Daudi cells
Protocol: (§1) Different cells in logarithmic phase were blocked with 3% BSA for 30 minutes, and then plated into a U-shaped 96-well plate at 5×10⁴ cells/100 μL; centrifugation was conducted at 1100 rpm for 3 minutes, the supernatant was discarded, the cells were patted and loosed gently, 50 μL of serially diluted antibody (diluted 3-fold in 5 series, with an initial concentration of 30 μg/mL) was added to each well, and the mixture was incubated at 4° C. for 1 hour. After the incubation, 180 μL 0.5% BSA was added to each well, wash 3 times, 30 μL/well of secondary antibody Alexa Fluro 647 anti-human IgG (Jackson ImmunoResearch, Cat: 109-606-170) was added, and the mixture was incubated at 4° C. for 45 minutes. After the incubation, each well was washed 3 times with 180 μL 0.5% BSA, and finally resuspended in 50 μL PBS each well for iQue (Intellicyt, USA) assay.

[2] = target: T1, human CD38 expressed on tumor cells …; test: flow cytometry (FACS) on NALM-6 cells
Protocol: as §1

[3] = target: T1, human CD38 expressed on tumor cells …; test: flow cytometry (FACS) on TALL-1 cells
Protocol: as §1

[4] = target: T1, human CD38 expressed on tumor cells …; test: flow cytometry (FACS) on Ramos.2G6.4C10 cells
Protocol: as §1

[5] = target: T2, recombinant human CD38 extracellular …; test: ELISA, plate coated with human CD38 protein, anti-human IgG Fc-HRP detection
Protocol: A 96-well plate was coated with human CD38 protein and incubated overnight at 4° C. The solution in wells were then discarded, washed 3 times with wash buffer, and blocked by the addition of 2% milk in PBS for 60 minutes. After washing 3 times with washing buffer, 100 μL of antibodies at different dilutions were added to each well, and the mixture was incubated at 37° C. for 1 hour; after washing 3 times with washing buffer, HPR-labeled goat anti-human IgG Fc was diluted at 1:5000 with 0.5% BSA, and the mixture was incubated at room temperature for 1 hour; after washing 3 times with washing buffer, 100 μL of TMB substrate solution was added for color development; after reaction at 37° C. for 10 minutes, the reaction was terminated with 50 μL of 2M sulfuric acid solution and the absorbance was read at 450 nm.

[6] = target: T2, recombinant human CD38 extracellular …; test: SPR (Biacore), antibody captured on protein A chip, human CD38 recombinant protein as analyte, Langmuir 1:1 fit
[7] = target: T2, recombinant human CD38 extracellular …; test: ELISA, plate coated with human CD38 protein, detection with HRP goat anti-human IgG Fc, OD450

EC50 [1] [nM]	EC50 [2] [nM]	EC50 [3] [nM]	EC50 [4] [nM]	EC50 [5] [nM]	Kd [6] [nM]	koff [6] [s⁻¹]	kon [6] [M⁻¹ s⁻¹]	EC50 (read off the curve) [7] [nM]	Binder
0.44	0.37	0.41	0.42	0.51	0.278	0.000556	2e+06	–	humanized CD38 antibody Ab031 (h48H1-VHv7 / h48H1-VKv7) (antibody, V domains shown, also called CM313-1) VH: QVQLQESGPGLVKPSETLSLTCTVSGFSLTSYGIHWIRQPPGKGLEWIGVIWRGGSTDYNPSLKSRVTISKDNSKSQVSLKLSSVTAADTAVYYCAKGKVTTGFYFDFWGQGTLVTVSS VL: EIVMTQSPPTLSLSPGERVTLSCRASEDIYNRLVWYQQKPGQAPRLLISGVTSLETSIPARFSGSGSGTDYTLTISSLQPEDFAVYYCQQYWSTPYTFGQGTKVEIK
0.54	0.49	0.34	0.58	4.24	1.43	0.00532	3.71e+06	–	humanized CD38 antibody Ab033 (h48H1-VHv8 / h48H1-VKv7) (antibody, V domains shown, also called CM313-2) VH: QVQLQESGPGLVKPSETLSLTCTVSGFSLTSYGIHWLRQPPGKGLEWIGVIWRGGSTDYNPSLKSRVTISKDTSKSQVSLKLSSVTAADTAVYYCAKGKVTTGFYFDFWGQGTLVTVSS VL: EIVMTQSPPTLSLSPGERVTLSCRASEDIYNRLVWYQQKPGQAPRLLISGVTSLETSIPARFSGSGSGTDYTLTISSLQPEDFAVYYCQQYWSTPYTFGQGTKVEIK
–	–	–	–	–	–	–	–	~0.1	chimeric anti-human CD38 antibody 48H1-B11 (antibody, V domains shown, also called chimeric antibody 48H1-B11; mAb48H1-B11 (murine parent)) VH: EVQLKQSGPGLMQPSQSLSITCTVSGFSLTSYGIHWLRQSPGKGLEWLGVIWRGGSTDYNAAFMSRLSITKDNSKSQVFFKMNSLQGDDTAIYYCAKGKVTTGFYFDFWGQGTTLTVSS VL: DIQMTQSSSSFSVSLGDRVTITCKASEDIYNRLVWYQQKPGNAPGLLISGVTSLETGVPSRFSGSGSGKDYTLTITSLQTEDVATYYCQQYWSTPYTFGGGTKLEIK
